Measurements as given in US20210162028A1, “Methods for Inducing Intermittent Fasting and Modulating Autophagy” (The Hong Kong Polytechnic University, priority 2019, published 2021).
“Also recorded” adds a separate entry of the source.

How the values were obtained:
Type in all cases: in vivo, mouse
LC3-II/LC3-I = assay: Autophagic flux in liver, LC3-II/LC3-I western blot with chloroquine; settings: DIO male mice on HFD; 600 U once a week, 4 weeks; Day 3 of cycle
Method: Ratio of LC3-II/LC3-I proteins was used as a marker of autophagy and was semiquantified by western blotting. Chloroquine (an autophagy inhibitor, CQ) was injected 5 hr to accumulate autophagosome in the liver before tissue collection. *P<0.05, one-way ANOVA followed by Bonferroni test. Data are expressed as mean±SEM, n=3 for each group.
Autophagy is involved in cell growth, survival, development and death. Impaired autophagic flux has been linked to a variety of human pathophysiological processes, including neurodegeneration, cancer, myopathy, cardiovascular and immune-mediated disorders. There is a growing need to identify and quantify the status of autophagic flux in different pathological conditions. Autophagy is a highly dynamic and complex process that is regulated at multiple steps. Autophagic flux can be detected by LC3-II turnover using western blot analysis in the presence and absence of lysosomal degradation inhibitors, chloroquine (CQ). If autophagic flux is occurring, the level of LC3-II will increase in the presence of a lysosomal degradation inhibitor because the transit of LC3-II through the autophagic pathway will be blocked.

[1] = Liver and kidney damage biomarkers (serum ALT/AST, urine albumin-to-creatinine); settings: DIO C57BL/6J male mice on HFD; about 600 U once a week, 34 weeks
Description: Other than WAT and BAT, obesity is associated with excessive accumulation of lipids in the liver (hepatic steatosis). Indeed, the liver of vehicle-treated DIO mice was markedly enlarged (FIG. 7A), with a mass about 3 times (4.68 g) that of the lean control (1.73 g) (FIG. 7B).
Other than liver, obesity is also commonly associated with lipid accumulation in the kidney (renal steatosis) and heart (cardiac steatosis), causing lipotoxicity and dysfunction of these organs. Indeed, there was an increase in kidney and heart mass in DIO mice treated with vehicle (FIG. 8A and FIG. 9A).

[2] = tested on: p62, LC3-II/LC3-I, p70S6K1, ULK1; assay: Western blotting of autophagy markers in brown adipose tissue; settings: 600 U once a week, 4 weeks
Description: FIG. 49 illustrates the changes of relative p62 protein levels, detected by western blotting, at different days of a 7-day intermittent fasting cycle in the brown adipose tissue (BAT) of HFD-induced C57BL/6J DIO male mice administered with 600 U N-ABD094-rhArg (SEQ ID NO: 50) once a week for 4 weeks. The p62 protein is a receptor for cargo destined to be degraded by autophagy. The marked reduction in p62 levels from Day 1 to Day 3 indicated enhanced autophagy that coincided with the entry into the fasting phase. The increase in p62 levels from Day 5 to Day 7 implicated a decrease in autophagy, which coincided with the entry into the refeeding phase. *P<0.05, one-way ANOVA followed by Bonferroni test. Data are expressed as mean±SEM, n=4 for each group.
Ratio of LC3II/LC3-I was used as a marker of autophagy and semiquantified by western blotting. Chloroquine (an autophagy inhibitor, CQ) were injected 5 hr to accumulate autophagosomes in the BAT before tissue collection. *P<0.05, one-way ANOVA followed by Bonferroni test. Data are expressed as mean±SEM, n=4 for [HFD (vehicle)] and [HFD (rhArg)] group without CQ; n=3 for CQ-treated group.
Data are expressed as mean±SEM, n=4 each group.
The p62, also known as SQSTMl/sequestome 1, serves as a link between LC3B and ubiquitinated substrates and is efficiently degraded by autophagy. Thus, the level of p62 proteins can be used to monitor autophagic flux. For example, autophagic suppression correlates with an increased p62 level, and similarly, autophagic activation correlates with a decreased p62 level. […] Besides, the expression level of autophagy marker LC3B was detected in presence or absence of CQ (FIG. 50). The conversion of LC3B -I to the lower migrating form, LC3B-II, is used as an indicator of cellular autophagy level. The higher the LC3B-II/LC3B-I ratio indicates the higher incidence rate of autophagy in the tissue.

[3] = Barnes maze test for spatial learning and memory; settings: DIO C57BL/6J male mice on HFD; weekly, at 43-44 weeks of treatment
Method: To determine whether N-ABD094-rhArg [SEQ ID NO: 50], which can induce repetitive intermittent fasting cycles, has beneficial effects on cognitive performance, the Barnes maze test was conducted over ten days to evaluate spatial learning and memory function. The test was performed on a flat circular platform (100 cm in diameter, 1.5 cm thick, elevated 40 cm above the floor) with twenty evenly-spaced holes (7 cm in diameter) distributed around the circumference, and an escape box was placed under one of the holes. Prior to experimentation, each mouse was guided to the specific hole that was positioned over the escape box and left for 180 seconds. Subsequently, each mouse was trained to find the escape hole by placing the mouse in the center of the platform under a small black chamber for three seconds, the chamber was then lifted, and mouse was allowed to find the escape hole within 180 seconds. The platform was brightly illuminated and cooled using a desk fan as adverse stimuli. If the mouse was unable to find the target hole in the allowed time, it was guided to the escape box. Two trials were performed each day for four consecutive days as training period, after which the short- and long-term spatial memory of the mouse was probed on Day 5 and Day 10 respectively, by removing the escape box and allowing them to explore the platform for a full 180 seconds. Each trial was recorded directly over the platform. For each trial on Day 1 to 4, the time required to find the escape hole and exit the platform, and the type of exploratory pattern (random, serial, or direct) in exploring were recorded. For each probe trial on Day 5 and 10, the number of times the mice investigated each of the twenty holes was recorded over 180 seconds, with an instance of investigation defined as the localization of the snout inside a given hole.
Spatial memory loss is a prominent feature in rodent models of type 2 diabetes and obesity [Boitard et al., 2014; Underwood and Thompson, 2016]. To investigate whether arginase treatment could prevent spatial memory loss in mice fed a HFD, DIO C57BL/6J male mice were subjected to assessment of spatial memory by Barnes maze test at 43 weeks after receiving weekly administration of N-ABD094-rhArg (SEQ ID NO: 50) starting from 17-week old.

[4] = DIO male mice on HFD, Day 3 of cycle

B1: N-ABD094-rhArg: recombinant human arginase fused to albumin binding domain ABD094 (SEQ ID NO: 50); engineered long-acting arginine-depleting enzyme (protein)
chain: MHHHHHHDEAVDANSLAEAKEAANAELDSYGVSDFYKRLIDKAKTVEGVEALKDAILAALPSGSNNNNNNGSGGMSAKSRTIGIIGAPFSKGQPRGGVEEGPTVLRKAGLLEKLKEQECDVKDYGDLPFADIPNDSPFQIVKNPRSVGKASEQLAGKVAEVKKNGRISLVLGGDHSLAIGSISGHARVHPDLGVIWVDAHTDINTPLTTTSGNLHGQPVSFLLKELKGKIPDVPGFSWVTPCISAKDIVYIGLRDVDPGEHYILKTLGIKYFSMTEVDRLGIGKVMEETLSYLLGRKKRPIHLSFDVDGLDPSFTPATGTPVVGGLTYREGLYITEEIYKTGLLSGLDIMEVNPSLGKTPEEVTRTVNTAVAITLACFGLAREGNHKPIDYLNPPK
modifications: N-ABD094-rhArg, Synthesized in the Lab
notes: engineered long-acting arginine-depleting enzyme
LC3-II/LC3-I
  LC3-II/LC3-I ratio in liver upon chloroquine injection (autophagic flux): dramatic increase; also recorded: enhancement of autophagic flux
[1]
  Ratio of albumin-to-creatinine in urine: levels similar to the age-matched lean control mice
  Serum concentrations of ALT and AST: restored to levels comparable to the lean control mice
[2]; DIO C57BL/6J male mice on HFD, days of the 7-day cycle
  p62 protein level in BAT: significant decrease in p62 level at Day 3 and Day 5
[2]; [4]
  LC3-II/LC3-I ratio in BAT upon chloroquine injection: dramatic increase upon injection of CQ
  ULK1 in BAT: stimulation
  p70S6K1 in BAT: significant suppression
[3]
  Barnes maze: exploratory pattern (search mode) on Day 1: predominately used a serial-type exploratory pattern; also recorded: significantly improve their search mode
  Barnes maze: latency to exit the platform in training period: could exit the platform significantly earlier than HFD-fed mice treated with vehicle; also recorded: significantly reduce the total latency
  Barnes maze: probe trial Day 5 (short-term memory): explored the holes nearest to the target in increasing frequency with the target hole being the most-explored hole
  Barnes maze: probe trial Day 10 (long-term memory): Such trends were maintained on Day 10
